These results are taken from US20220023399A1, “BLOOD COMPONENT POTENTIATION OF LYTIC PROTEIN ANTI-BACTERIAL ACTIVITY AND METHODS AND USES THEREOF” (priority 2017, published 2022).

Common to all, as to type: cell-based
The test system of experiment [1] is S. aureus (strain not given). Put plainly: MIC analysis of various lysins, chimeric lysins and antibiotics in MHB and human serum. Particulars: Table 14 (Example 2). As to the method: To further evaluate the binding domain relevance to the serum component effect, various chimerics were constructed by replacing or swapping out one binding domain for another. Chimeric lysins having the Sal1 CHAP catalytic domain with ClyS binding domain, PlySs2 (CF-301) binding domain, or lysostaphin binding domain were assayed for MIC using MHB versus human serum. the results are depicted below in TABLE 14.

The subject of experiment [2] is methicillin-resistant S. aureus (MRSA) strain MW2. Put plainly: Time-kill assay in blood matrices and MHB.
The subject of experiment [3] is S. aureus CAIRD 456 (MRSA). The experiment can be described thus: Checkerboard assay, additional MRSA strains. Particulars: paired agent not given.
The test system of the next experiment is S. aureus strain MW2. The experiment can be described thus: Transmission electron microscopy of lytic activity. The protocol: FIG. 13 depicts TEM analysis of S. aureus strain MW2 treated with PlySs2 (CF-301) in either human serum (HuS) or MHB for 15 minutes.
Staphylococci were treated with a range of PlySs2 (CF-301) concentrations for […] in either human serum or MHB before analysis by transmission electron microscopy (TEM). […] In addition to the more rapid bacteriolysis in serum, the lytic event was visually different in comparison to the event in MHB. In human serum, all bacteria are encased in a proteinaceous sheath presumably consisting of host proteins including HSA. […] In contrast, the lytic event in MHB appears as the classic cytoplasmic membrane bubbling and extrusion just prior to lysis.
Electron Microscopy. Mid-log phase strain MW2 growing in either CAMHB or human serum (Sigma-Aldrich) was treated with the indicated concentrations of PlySs2 (CF-301) or buffer alone (control) at 37° C. for 15 minutes. The cells were then washed with 1× phosphate buffer (PB) and resuspended in a solution of 4% paraformaldehyde and 2% glutaraldehyde in 0.1 M cacodylate buffer (pH 7.4). The samples were post-fixed in 1% osmium tetroxide, block stained with uranyl acetate, and processed according to standard procedures by The Rockefeller University Electron Microscopy Service. Samples were visualized using a Tecnai™ Spirit BT Transmission Electron Microscope (FEI). […]

The mark [4] stands for this setting: medium head missing (human serum).

Some results are limits rather than exact numbers.

B1: PlySs2 (CF-301): antistaphylococcal lysin from a Streptococcus suis prophage; N-terminal CHAP domain, C-terminal SH3-type binding domain; SEQ ID NO:3 (protein, listed as Streptococcus suis)
chain: MTTVNEALNNVRAQVGSGVSVGNGECYALASWYERMISPDATVGLGAGVGWVSGAIGDTISAKNIGSSYNWQANGWTVSTSGPFKAGQIVTLGATPGNPYGHVVIVEAVDGDRLTILEQNYGGKRYPVRNYYSAASYRQQVVHYITPPGTVAQSAPNLAGSRSYRETGTMTVTVDALNVRRAPNTSGEIVAVYKRGESFDYDTVIIDVNGYVWVSYIGGSGKRNYVATGATKDGKRFGNAWGTFK
For B1, in experiment [1] (MHB), the “Minimal inhibitory concentration, MHB” value was 32 µg/mL. Besides, the “Fold decrease in MIC” value in experiment [1] (human serum vs MHB) is given as 32. Also, the “Minimal inhibitory concentration, Human serum” value in experiment [1] (human serum) is 1 µg/mL. Besides, the minimum sterilizing concentration in experiment [2] (MHB) amounted to 320 µg/mL; in experiment [2] (all human blood matrices (whole blood, serum, plasma), sterilizing by 24 hours) it was 3.2 µg/mL. Further, the sterilizing concentration was 32 µg/mL in experiment [2] (calf serum); 3.2 µg/mL in experiment [2] (dog serum); more than 320 µg/mL in experiment [2] (mouse serum); 3.2 µg/mL in experiment [2] (rabbit serum); 32 µg/mL in experiment [2] (rat serum). Also, the “difference in sterilizing activity/potency, blood compared to MHB” value in experiment [2] (strain MW2, human blood matrices vs MHB) stood at 100 fold. Also, the ΣFICavg in experiment [3] (CAMHB) was determined as 0.75; in experiment [3] (setting [4]), 0.44. Besides, the ΣFICmin in experiment [3] (CAMHB) came out at 0.5; in experiment [3] (setting [4]), 0.38. In addition, the “concentration at which bacteriolytic activity was observed by TEM (only the highest tested)” value with S. aureus strain MW2 (MHB) came out at 5 µg/mL. Moreover, in the experiment on S. aureus strain MW2 (human serum, all concentrations over a 100-fold range), the “bacteriolysis observed by TEM” value is listed as “widespread evidence of lysis”.
